In US20220186239A1 (NINGBO UNIVERSITY, published 2022):

Target: T1, AD-T (UniProt P03070 87-708)
T1 construct: Commercial Y2H control prey; also called control prey
Experiment: yeast two-hybrid in Y2H Gold; growth on QDO and colour on QDO/X/A

B1: BD-Lam (other)
chain: MKLLSSIEQACDICRLKKLKCSKEKPKCAKCLKNNWECRYSPKTKRSPLTRAHLTEVESRLERLEQLFLLIFPREDLDMILKMDSLQDIKALLTGLFVQDNVNKDAVTDRLASVETDMPLTLRQHRISATSSSEESSNKGQRQLTVSSEEVVSREVSGIKAAYEAELGDARKTLDSVAKERARLQLELSKVREEFKELKARNTKKEGDLIAAQARLKDLEALLNSKEAALSTALSEKRTLEGELHDLRGQVAKLEAALGEAKKQLQDEMLRRVDAENRLQTMKEELDFQKNIYSEELRETKRRHETRLVEID
notes: Commercial Y2H negative control bait; also called negative control bait
- binding result: no binding
